B1: Type 3 secretion system translocon protein SctE (Shigella flexneri), P18011 (parent)
chain: MHNVSTTTTGFPLAKILTSTELGDNTIQAANDAANKLFSLTIADLTANQNINTTNAHSTSNILIPELKAPKSLNASSQLTLLIGNLIQILGEKSLTALTNKITAWKSQQQARQQKNLEFSDKINTLLSETEGLTRDYEKQINKLKNADSKIKDLENKINQIQTRLSELDPESPEKKKLSREEIQLTIKKDAAVKDRTLIEQKTLSIHSKLTDKSMQLEKEIDSFSAFSNTASAEQLSTQQKSLTGLASVTQLMATFIQLVGKNNEESLKNDLALFQSLQESRKTEMERKSDEYAAEVRKAEELNRVMGCVGKILGALLTIVSVVAAAFSGGASLALAAVGLALMVTDAIVQAATGNSFMEQALNPIMKAVIEPLIKLLSDAFTKMLEGLGVDSKKAKMIGSILGAIAGALVLVAAVVLVATVGKQAAAKLAENIGKIIGKTLTDLIPKFLKNFSSQLDDLITNAVARLNKFLGAAGDEVISKQIISTHLNQAVLLGESVNSATQAGGSVASAVFQNSASTNLADLTLSKYQVEQLSKYISEAIEKFGQLQEVIADLLASMSNSQANRTDVAKAILQQTTA
B2: Chaperone protein IpgC (Shigella flexneri), P0A2U4 (parent)
chain: MSLNITENESISTAVIDAINSGATLKDINAIPDDMMDDIYSYAYDFYNKGRIEEAEVFFRFLCIYDFYNVDYIMGLAAIYQIKEQFQQAADLYAVAFALGKNDYTPVFHTGQCQLRLKAPLKAKECFELVIQHSNDEKLKIKAQSYLDAIQDIKE
partner: B1 chain

Variants of: B1
Details: with ipgc_shifl ipgC

Row | Variant | effect of a mutation on the interaction
1 | MHNVSTTTTGFPLAKILTSTELGDNTIQAANDAANKLFSLTIADLTANQNINTTNAHSTSNILIRELKAPKSLNASSQLTLLIGNLIQILGEKSLTALTNKITAWKSQQQARQQKNLEFSDKINTLLSETEGLTRDYEKQINKLKNADSKIKDLENKINQIQTRLSELDPESPEKKKLSREEIQLTIKKDAAVKDRTLIEQKTLSIHSKLTDKSMQLEKEIDSFSAFSNTASAEQLSTQQKSLTGLASVTQLMATFIQLVGKNNEESLKNDLALFQSLQESRKTEMERKSDEYAAEVRKAEELNRVMGCVGKILGALLTIVSVVAAAFSGGASLALAAVGLALMVTDAIVQAATGNSFMEQALNPIMKAVIEPLIKLLSDAFTKMLEGLGVDSKKAKMIGSILGAIAGALVLVAAVVLVATVGKQAAAKLAENIGKIIGKTLTDLIPKFLKNFSSQLDDLITNAVARLNKFLGAAGDEVISKQIISTHLNQAVLLGESVNSATQAGGSVASAVFQNSASTNLADLTLSKYQVEQLSKYISEAIEKFGQLQEVIADLLASMSNSQANRTDVAKAILQQTTA [P65R] | disrupting interaction strength
2 | MHNVSTTTTGFPLAKILTSTELGDNTIQAANDAANKLFSLTIADLTANQNINTTNAHSTSNILIPELKADKSLNASSQLTLLIGNLIQILGEKSLTALTNKITAWKSQQQARQQKNLEFSDKINTLLSETEGLTRDYEKQINKLKNADSKIKDLENKINQIQTRLSELDPESPEKKKLSREEIQLTIKKDAAVKDRTLIEQKTLSIHSKLTDKSMQLEKEIDSFSAFSNTASAEQLSTQQKSLTGLASVTQLMATFIQLVGKNNEESLKNDLALFQSLQESRKTEMERKSDEYAAEVRKAEELNRVMGCVGKILGALLTIVSVVAAAFSGGASLALAAVGLALMVTDAIVQAATGNSFMEQALNPIMKAVIEPLIKLLSDAFTKMLEGLGVDSKKAKMIGSILGAIAGALVLVAAVVLVATVGKQAAAKLAENIGKIIGKTLTDLIPKFLKNFSSQLDDLITNAVARLNKFLGAAGDEVISKQIISTHLNQAVLLGESVNSATQAGGSVASAVFQNSASTNLADLTLSKYQVEQLSKYISEAIEKFGQLQEVIADLLASMSNSQANRTDVAKAILQQTTA [P70D] | disrupting interaction strength
3 | MHNVSTTTTGFPLAKILTSTELGDNTIQAANDAANKLFSLTIADLTANQNINTTNAHSTSNILIPELAAPKSLNASSQLTLLIGNLIQILGEKSLTALTNKITAWKSQQQARQQKNLEFSDKINTLLSETEGLTRDYEKQINKLKNADSKIKDLENKINQIQTRLSELDPESPEKKKLSREEIQLTIKKDAAVKDRTLIEQKTLSIHSKLTDKSMQLEKEIDSFSAFSNTASAEQLSTQQKSLTGLASVTQLMATFIQLVGKNNEESLKNDLALFQSLQESRKTEMERKSDEYAAEVRKAEELNRVMGCVGKILGALLTIVSVVAAAFSGGASLALAAVGLALMVTDAIVQAATGNSFMEQALNPIMKAVIEPLIKLLSDAFTKMLEGLGVDSKKAKMIGSILGAIAGALVLVAAVVLVATVGKQAAAKLAENIGKIIGKTLTDLIPKFLKNFSSQLDDLITNAVARLNKFLGAAGDEVISKQIISTHLNQAVLLGESVNSATQAGGSVASAVFQNSASTNLADLTLSKYQVEQLSKYISEAIEKFGQLQEVIADLLASMSNSQANRTDVAKAILQQTTA [K68A] | decreasing interaction strength
4 | MHNVSTTTTGFPLAKILTSTELGDNTIQAANDAANKLFSLTIADLTANQNINTTNAHSTSNILIPENKAPKSLNASSQLTLLIGNLIQILGEKSLTALTNKITAWKSQQQARQQKNLEFSDKINTLLSETEGLTRDYEKQINKLKNADSKIKDLENKINQIQTRLSELDPESPEKKKLSREEIQLTIKKDAAVKDRTLIEQKTLSIHSKLTDKSMQLEKEIDSFSAFSNTASAEQLSTQQKSLTGLASVTQLMATFIQLVGKNNEESLKNDLALFQSLQESRKTEMERKSDEYAAEVRKAEELNRVMGCVGKILGALLTIVSVVAAAFSGGASLALAAVGLALMVTDAIVQAATGNSFMEQALNPIMKAVIEPLIKLLSDAFTKMLEGLGVDSKKAKMIGSILGAIAGALVLVAAVVLVATVGKQAAAKLAENIGKIIGKTLTDLIPKFLKNFSSQLDDLITNAVARLNKFLGAAGDEVISKQIISTHLNQAVLLGESVNSATQAGGSVASAVFQNSASTNLADLTLSKYQVEQLSKYISEAIEKFGQLQEVIADLLASMSNSQANRTDVAKAILQQTTA [L67N] | disrupting interaction strength

Variants of: B2
Details: with scte_shifl sctE

Row | Variant | effect of a mutation on the interaction
5 | S41M;Y44G;G75Q;A78M | disrupting interaction strength

Source: IntAct's records for PubMed 19478065
